# Test results: publication PMC6778195
# B1: unnamed (parent)
# chain 1: PCVVGGQADTIYPAIANQMAHQMHEDAQTEASKRGLAKLRADAKQGIYKKNRKPQELSNICNITLQHSNDSRNGNNGGACTGKDGNNERFKIGTEWKIGEKVETTDTDAYIPPRRQHMCTSNLENLNVSWVTEDGKAIHSLLGDVQLAAKMDADEIIKRYKKHNTLTDPIQQKDQESICRAVRYSFADLGDIIRGRDLWEHGDQTKLQGHLQIIFGKIKEEIKKKHPGINGNDKYKGDEKNNPPYKQLREDWWEANRHQVWRAMQCELKNLKKSNGDCHYNSRGTPLDDYIPQRLRWMVEWAEWFCKMQSQEYDKLMKQCSQCMSKGGDCRKGDVNCTSCEQACEEYKKKIKKWEKQWNKIKDKYEELYLQAKIAFAGTSFGGGDRDYQQMVHFFKELQKVTGDTTLGDTTSPYSTAAGYIHQEGHVDECTEQTQFCKNRNGNTASGKEDDNYTFKDPPPKYANACKCD
# chain 2: QTSVSPSKVILPRGGSVLVTCSTSCDQPKLLGIETPLPKKELLLPGNNRKVYELSNVQEDSQPMCYSNCPDGQSTAKTFLTVYWTPERVELAPLPSWQPVGKNLTLRCQVEGGAPRANLTVVLLRGEKELKREPAVGEPAEVTTTVLVRRDHHGANFSCRTELDLRPQGLELFENTSAPYQLQTFVLPATPPQLVSPRVLEVDTQGTVVCSLDGLFPVSEAQVHLALGDQRLNPTVTYGNDSFSAKASVSVTAEDEGTQRLTCAVILGNQSQETLQTVTIYSFPAPNVILTKPEVSEGTEVTVKCEAHPRAKVTLNGVPAQPLGPRAQLLLKATPEDNGRSFSCSATLEVAGQLIHKNQTRELRVLYGPRLDERDCPGNWTWPENSQQTPMCQAWGNPLPELKCLKDGTFPLPIGESVTVTRDLEGTYLCRARSTQGEVTRKVTVNVLSPRYE
# Variants of: B1
# Assay: SPR
# Conditions: with partner chain of the complex shown; top curve of the dilution series (250 nM), read at end of injection (~250 s); parent: 260; read off a plot
row,Variant,response [RU]
1,chain 1 N242A,270
2,chain 1 E366A,190
3,chain 1 G382A G383A G384A,260
4,chain 1 L407D,220
5,chain 1 N241A,280
6,chain 1 L370D,70
7,chain 1 Q389A,280
8,chain 1 G383A,270
9,chain 1 G382A G383A,280
